Earlier results as cited in article PMC7561359.

Biological target: IFNAR1 (Homo sapiens) (UniProt P17181)
Sequence of UniProt P17181 (P17181 28-436): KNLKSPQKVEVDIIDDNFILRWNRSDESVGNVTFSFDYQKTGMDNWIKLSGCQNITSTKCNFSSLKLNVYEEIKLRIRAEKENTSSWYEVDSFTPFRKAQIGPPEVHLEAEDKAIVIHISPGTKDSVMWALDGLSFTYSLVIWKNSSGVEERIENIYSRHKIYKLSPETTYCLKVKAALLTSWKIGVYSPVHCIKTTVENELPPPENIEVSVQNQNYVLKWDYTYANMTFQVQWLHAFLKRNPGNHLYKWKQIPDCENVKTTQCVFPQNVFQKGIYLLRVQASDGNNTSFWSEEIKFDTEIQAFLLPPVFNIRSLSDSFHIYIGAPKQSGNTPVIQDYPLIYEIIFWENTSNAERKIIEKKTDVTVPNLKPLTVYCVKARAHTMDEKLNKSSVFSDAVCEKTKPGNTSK

Kd: 100 nM
Substance: IFNβ (from UniProt P01574)
